Article doi:10.1101/2020.07.07.192807 (bioRxiv, 2020)

Biological target: the molecule itself
Test: cross-linking

Protein | stoichiometry N
Wild type MtrR of Neisseria gonorrhoeae (strain FA19), hexa-histidine tagged (natural protein) MRKTKTEALKTKEHLMLAALETFYRKGIARTSLNEIAQAAGVTRGALYWHFKNKEDLFDALFQRICDDIENCIAQDAADAEGGSWTVFRHTLLHFFERLQSNDIHYKFHNILFLKCEHTEQNAAVIAIARKHQAIWREKITAVLTEAVENQDLADDLDKETAVIFIKSTLDGLIWRWFSSGESFDLGKTAPRIIGIMMDNLENHPCLRRK | 2
H105Y mutant MtrR of Neisseria gonorrhoeae (from an antibiotic resistant clinical isolate), hexa-histidine tagged (natural protein) MRKTKTEALKTKEHLMLAALETFYRKGIARTSLNEIAQAAGVTRGALYWHFKNKEDLFDALFQRICDDIENCIAQDAADAEGGSWTVFRHTLLHFFERLQSNDIYYKFHNILFLKCEHTEQNAAVIAIARKHQAIWREKITAVLTEAVENQDLADDLDKETAVIFIKSTLDGLIWRWFSSGESFDLGKTAPRIIGIMMDNLENHPCLRRK | 2
